Experiment: Stability of GF-Fus3 in human synovial fluid (western blot)
Type: in vitro ADME
Description: Synovial fluid was harvested from two human donors (see Table 14) within 24 hours of death, flash frozen and stored at −80° C. 2 μL of GF-Fus3 (0.45 mg/mL in PBS, Life Technologies Cat#10010-031) was added to 18 pt of synovial fluid (final GF-Fus3 concentration is 45 μg/mL) in a sealed 200 μL PCR tube and incubated at 37° C. for 0, 24, 48, 72, or 96 hours. Samples were diluted 1:10 in PBS and 10 μL (45 ng of GF-Fus3) was mixed with 3.3 μL of NuPAGE LDS Sample Buffer (Life Technologies, Cat# NP0007). GF-Fus3 standards were prepared at 100, 200, 400, 800, and 1600 ng/mL and 10 μL of each solution was mixed with 3.3 uL of NuPAGE LDS Sample Buffer. All samples and standards were loaded onto a 4-12% NuPAGE Bis-Tris Gel (Life Technologies, Cat# NP0321BOX), and run in NuPAGE MES SDS Running Buffer (Life Technologies, Cat# NP0002). Protein was transferred to a nitrocellulose membrane using an iBlot kit (Life Technologies, Cat# IB301001). Membrane was blocked in Odyssey Blocking Buffer (LI-COR, Cat#927-40000) for 1 hour at room temperature with agitation. Membrane was washed twice in PBS with 0.05% Tween20 (PBS-T) and incubated in 2 μg/mL anti-IGF-1 antibody (Millipore, Cat#05-172) overnight at 4° C. Membrane was washed three times in PBS-T and incubated with IRDye 800CW goat anti-mouse antibody (LI-COR, Cat#827-08364) diluted 1:2000 for 1 hour at room temperature. […]

Substance: GF-Fus3: C-terminal fusion IGF-1(LR3)-PRELP heparin binding domain
- protein degradation band at less than 7.5 kDa (45 ng loaded, after incubation in synovial fluid at 37° C.): ≤ 1 ng
- protein degradation in synovial fluid (96 hours of 37° C. incubation, donors with grade 1 and grade 3 cartilage degeneration): minimal protein degradation

Source: patent publication US20170327556A1, “CARTILAGE-BINDING FUSION PROTEINS” (Merrimack Pharmaceuticals, Inc., priority 2013, published 2017)
